Results as given in publication PMC3774380.

Target: L-glucagon (natural) (human) (UniProt P01275)
Test: competitive pull-down
Conditions: all L-nucleotides, Selection buffer: 20 mM Tris pH 7.4, 150 mM NaCl, 5 mM KCl, 1 mM MgCl2, 1 mM CaCl2, 0.1% Tween 20, 0.1% CHAPS, 100 ug/ml HSA, 10 ug/ml yeast RNA, 37 C …

Sequence of L-glucagon (natural) (human) (P01275 53-81): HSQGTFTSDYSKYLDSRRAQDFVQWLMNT

GCGGGAAATGGGAGGGCTAGGTGGAAGGAATCTGAGCGC [L-257-E1-030-6xR]
Kd (ribonucleotides at positions 5, 11, 14, 15, 25, 26, rest deoxy): 6.3 nM

GCAGTGGGGAAATGGGAGGGCTAGGTGGAAGGAATCTGAGCTACTGC [L-257-E1-001-R15/29/30]
Kd (ribonucleotides at positions 15, 29, 30, rest deoxy): 20 nM

GCAGTGGGGAAATGGGAGGGCTAGGTGGAAGGAATCTGAGCTACTGC [L-257-E1-001-6xR]
Kd (ribonucleotides at positions 9, 15, 18, 19, 29, 30, rest deoxy): 6.4 nM
